The supplement of paper PMC11316812
± gives the standard deviation of the averaged measurements.

Assays:
[1] = tested on: hTERT-HMEC; assay: percentage of EdU-negative (G0-arrested) nuclei per well, 72 h; higher = more G0 arrest; details: reference: sequence is the full UniProt precursor, the tested protein was the secreted form or ectodomain
[2] = tested on: MCF7; assay: as above; details: reference: sequence is the full UniProt precursor, the tested protein was the secreted form or ectodomain
[3] = protein concentration 0.0065 µM
[4] = protein concentration 0.0191429 µM
[5] = protein concentration 0.191429 µM
[6] = protein concentration 0.0225 µM
[7] = protein concentration 0.03125 µM
[8] = protein concentration 0.3125 µM
[9] = protein concentration 0.01375 µM
[10] = protein concentration 0.1375 µM
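Also: secreted proteins added to cultured cells, EdU pulse at the end, nuclei found by Hoechst imaging, EdU status from nuclear versus surrounding ring intensity ratio, PBS as neutral control.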

Q9BXJ3, sequence (chain, as listed by the source): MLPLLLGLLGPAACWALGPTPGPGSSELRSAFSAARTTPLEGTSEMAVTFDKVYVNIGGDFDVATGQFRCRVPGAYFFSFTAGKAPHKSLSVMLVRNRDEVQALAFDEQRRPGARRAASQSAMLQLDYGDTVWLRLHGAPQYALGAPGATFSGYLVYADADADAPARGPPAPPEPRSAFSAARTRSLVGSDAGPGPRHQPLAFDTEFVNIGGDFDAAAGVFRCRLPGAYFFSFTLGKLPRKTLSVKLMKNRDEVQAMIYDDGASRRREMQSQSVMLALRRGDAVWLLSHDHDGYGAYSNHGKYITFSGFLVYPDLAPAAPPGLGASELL

Substance: MVGTKAWVFSFLVLEVTSVLGRQTMLTQSVRRVQPGKKNPSIFAKPADTLESPGEWTTWFNIDYPGGKGDYERLDAIRFYYGDRVCARPLRLEARTTDWTPAGSTGQVVHGSPREGFWCLNREQRPGQNCSNYTVRFLCPPGSLRRDTERIWSPWSPWSKCSAACGQTGVQTRTRICLAEMVSLCSEASEEGQHCMGQDCTACDLTCPMGQVNADCDACMCQDFMLHGAVSLPGGAPASGAAIYLLTKTPKLLTQTDSDGRFRIPGLCPDGKSILKITKVKFAPIVLTMPKTSLKAATIKAEFVRAETPYMVMNPETKARRAGQSVSLCCKATGKPRPDKYFWYHNDTLLDPSLYKHESKLVLRKLQQHQAGEYFCKAQSDAGAVKSKVAQLIVIASDETPCNPVPESYLIRLPHDCFQNATNSFYYDVGRCPVKTCAGQQDNGIRCRDAVQNCCGISKTEEREIQCSGYTLPTKVAKECSCQRCTETRSIVRGRVSAADNGEPMRFGHVYMGNSRVSMTGYKGTFTLHVPQDTERLVLTFVDRLQKFVNTTKVLPFNKKGSAVFHEIKMLRRKKPITLEAMETNIIPLGEVVGEDPMAELEIPSRSFYRQNGEPYIGKVKASVTFLDPRNISTATAAQTDLNFINDEGDTFPLRTYGMFSVDFRDEVTSEPLNAGKVKVHLDSTQVKMPEHISTVKLWSLNPDTGLWEEEGDFKFENQRRNKREDRTFLVGNLEIRERRLFNLDVPESRRCFVKVRAYRSERFLPSEQIQGVVISVINLEPRTGFLSNPRAWGRFDSVITGPNGACVPAFCDDQSPDAYSAYVLASLAGEELQAVESSPKFNPNAIGVPQPYLNKLNYRRTDHEDPRVKKTAFQISMAKPRPNSAEESNGPIYAFENLRACEEAPPSAAHFRFYQIEGDRYDYNTVPFNEDDPMSWTEDYLAWWPKPMEFRACYIKVKIVGPLEVNVRSRNMGGTHRQTVGKLYGIRDVRSTRDRDQPNVSAACLEFKCSGMLYDQDRVDRTLVKVIPQGSCRRASVNPMLHEYLVNHLPLAVNNDTSEYTMLAPLDPLGHNYGIYTVTDQDPRTAKEIALGRCFDGTSDGSSRIMKSNVGVALTFNCVERQVGRQSAFQYLQSTPAQSPAAGTVQGRVPSRRQQRASRGGQRQGGVVASLRFPRVAQQPLIN
- percentage of EdU-negative [1, 3]: 4.85 ± 0.48%
- percentage of EdU-negative ([1]; protein concentration 0.065 µM): 4.77 ± 1%
- percentage of EdU-negative [2, 3]: 25.3 ± 0.34%
- percentage of EdU-negative ([2]; protein concentration 0.065 µM): 25.9 ± 2%

Substance: Q9BXJ3
- percentage of EdU-negative [1, 4]: 5.17 ± 0.79%
- percentage of EdU-negative [1, 5]: 4.77 ± 0.24%
- percentage of EdU-negative [2, 4]: 27.3 ± 3.6%
- percentage of EdU-negative [2, 5]: 23.8 ± 1.1%

Substance: MASPGCLWLLAVALLPWTCASRALQHLDPPAPLPLVIWHGMGDSCCNPLSMGAIKKMVEKKIPGIYVLSLEIGKTLMEDVENSFFLNVNSQVTTVCQALAKDPKLQQGYNAMGFSQGGQFLRAVAQRCPSPPMINLISVGGQHQGVFGLPRCPGESSHICDFIRKTLNAGAYSKVVQERLVQAEYWHDPIKEDVYRNHSIFLADINQERGINESYKKNLMALKKFVMVKFLNDSIVDPVDSEWFGFYRSGQAKETIPLQETSLYTQDRLGLKEMDNAGQLVFLATEGDHLQLSEEWFYAHIIPFLG
- percentage of EdU-negative [1, 6]: 4.49 ± 0.2%
- percentage of EdU-negative ([1]; protein concentration 0.225 µM): 9.52 ± 0.25%
- percentage of EdU-negative [2, 6]: 25.6 ± 1.6%
- percentage of EdU-negative ([2]; protein concentration 0.225 µM): 26.4 ± 0.39%

Substance: MMCGAPSATQPATAETQHIADQVRSQLEEKENKKFPVFKAVSFKSQVVAGTNYFIKVHVGDEDFVHLRVFQSLPHENKPLTLSNYQTNKAKHDELTYF
- percentage of EdU-negative [1, 7]: 5.09 ± 0.59%
- percentage of EdU-negative [1, 8]: 4.78 ± 0.35%
- percentage of EdU-negative [2, 7]: 26 ± 3.3%
- percentage of EdU-negative [2, 8]: 26.5 ± 2.9%

Substance: MVGPAPRRRLRPLAALALVLALAPGLPTARAGQTPRPAERGPPVRLFTEEELARYGGEEEDQPIYLAVKGVVFDVTSGKEFYGRGAPYNALTGKDSTRGVAKMSLDPADLTHDTTGLTAKELEALDEVFTKVYKAKYPIVGYTARRILNEDGSPNLDFKPEDQPHFDIKDEF [Q9UMX5]
- percentage of EdU-negative [1, 7]: 4.98 ± 0.59%
- percentage of EdU-negative [1, 8]: 6.64 ± 2.3%
- percentage of EdU-negative [2, 7]: 22.8 ± 0.65%
- percentage of EdU-negative [2, 8]: 23.5 ± 1.4%

Substance: O60486
- percentage of EdU-negative [1, 9]: 4.77 ± 0.19%
- percentage of EdU-negative [1, 10]: 10.8 ± 1%
- percentage of EdU-negative [2, 9]: 23.37 ± 0.13%
- percentage of EdU-negative [2, 10]: 26.9 ± 3%

Substance: MGCRAASGLLPGVAVVLLLLLQSTQSVYIQYQGFRVQLESMKKLSDLEAQWAPSPRLQAQSLLPAVCHHPALPQDLQPVCASQEASSIFKTLRTIANDDCELCVNVACTGCL
- percentage of EdU-negative [1, 6]: 4.91 ± 1.5%
- percentage of EdU-negative ([1]; protein concentration 0.225 µM): 9.77 ± 1.3%
- percentage of EdU-negative [2, 6]: 27.3 ± 2.2%
- percentage of EdU-negative ([2]; protein concentration 0.225 µM): 27.8 ± 1.8%
